Experimental data taken from patent publication US20190248902A1 (published 2019).
Positions count from the first letter of the chain named.

T1: human ASGR-1 mutant construct H203 (human, UniProt P07306 1-291)
T1 construct: Arg/Glu scanning: non-arginine residues were changed to arginine; Transiently expressed on CHO-S cells
T1 sequence: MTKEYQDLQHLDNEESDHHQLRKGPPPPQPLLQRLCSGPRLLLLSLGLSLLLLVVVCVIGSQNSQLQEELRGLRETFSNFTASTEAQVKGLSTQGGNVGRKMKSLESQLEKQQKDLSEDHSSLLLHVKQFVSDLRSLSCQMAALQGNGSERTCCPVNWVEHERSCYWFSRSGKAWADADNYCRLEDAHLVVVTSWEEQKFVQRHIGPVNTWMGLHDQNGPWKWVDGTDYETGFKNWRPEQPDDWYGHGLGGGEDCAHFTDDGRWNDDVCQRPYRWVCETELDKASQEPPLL

T2: Human ASGR-2 (human, UniProt P07307 1-311)
T2 construct: Expressed on HEK 293 cells; cDNA GenBank NM_080913.3; also called huASGR-2; hASGR-2
T2 sequence: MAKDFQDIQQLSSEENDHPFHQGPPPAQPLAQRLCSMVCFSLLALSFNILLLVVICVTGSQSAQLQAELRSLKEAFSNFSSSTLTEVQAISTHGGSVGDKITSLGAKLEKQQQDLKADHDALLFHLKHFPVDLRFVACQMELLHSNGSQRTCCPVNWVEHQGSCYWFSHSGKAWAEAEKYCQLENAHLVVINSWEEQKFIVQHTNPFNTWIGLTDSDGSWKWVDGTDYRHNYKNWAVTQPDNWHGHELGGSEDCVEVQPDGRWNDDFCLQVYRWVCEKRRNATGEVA

T3: Cyno ASGR-1 (cynomolgus monkey, UniProt P07306 1-291 (human entry))
T3 construct: Expressed on HEK 293 cells or as membrane prep on beads; cDNA from XP_005582755; also called cynomologus monkey ASGR-1
T3 chain: T1 sequence with R22G, P30S, Q33R, S64A, E68R, F77L, T152A, R203H

T4: Pig ASGR-1 (pig)
T4 construct: Expressed on HEK 293 cells or as membrane prep on beads; cDNA GenBank NM_001244458
T4 chain: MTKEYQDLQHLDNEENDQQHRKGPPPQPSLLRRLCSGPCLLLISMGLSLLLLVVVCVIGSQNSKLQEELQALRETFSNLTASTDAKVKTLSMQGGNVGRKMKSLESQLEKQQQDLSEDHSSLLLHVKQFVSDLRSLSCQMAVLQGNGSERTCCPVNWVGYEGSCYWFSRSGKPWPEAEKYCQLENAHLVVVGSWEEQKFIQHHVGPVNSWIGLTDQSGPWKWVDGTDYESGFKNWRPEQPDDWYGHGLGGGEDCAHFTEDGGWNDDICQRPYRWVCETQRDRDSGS

B1: 75G3 (antibody, V domains shown)
VH: QVQLQQWGAGLLKPSETLSLTCAVYGGSLSGSYWSWIRQPPGKGLEWIGEINLSGSTNYNPSLKSRVTISVDTSKSQFSLTLRSVTAADTAVYYCARDYGGLDYWGQGTLVTVSS
VL: EIVLTQSPGTLSLSPGERATLSCRARQNVDSSYLAWYQQKPGQAPRLLIYGASSRATGIPDRFSGSGSGTDFTLTISRLEPEDFAVFYCQQYERSPWTFGQGTKVEIK
notes: mAb
B2: 193E7 (antibody, V domains shown)
VH: QVQLQQWGAGLLKPSETLSLTCAVYGGSFSGYFWTWIRQPPGKGLEWIGEINHSGSTNYNPSLKSRVTISVDTSKNQFSLKLSSVTAADTAVYYCARDYGADYWGQGTLVAVSA
VL: DIQMTQSPSSLSASVGDRVTITCRASQGIRNDLGWYQQKPGKAPKRLIYSASSLQRGVPSRFSGSGSGTEFTLTISSLQPEDFATYYCLQHKRYPLTFGGGTKVEIK
notes: mAb
B3: 194C10 (antibody, V domains shown)
VH: QVQLQQWGAGLLKPSETLSLTCAVSGGSFRYYYWSWIRQPPGKGLEWFGEINHSGSTNYNPSLKSRVTISIDTSKNQFSLKLRSVTAADTAVYYCARDYGAFDIWGQGTMVTVSS
VL: EIVLTQSPGTLSLSPGERATLSCRASPSVNSGYLAWYQQKPGQTPRLLIFGASSRATGIPDRFSASGSGADFTLTISRLEPEDFAVYFCQQYESSPWTFGQGTKVEIK
notes: mAb
B4: 218G4 (antibody, V domains shown)
VH: QVQLVESGGGVVQPGRSLRLSCAASGFTFSSYGLHWVRQAPGKGLEWVAVIWYDGSNKYYADSVKGRFTISRDNSKNTLYLQMNSLRVEDTAVYYCANWYYYYYGMDVWGQGTTVTVSS
VL: QSVLTQPPSVSAAPGQKVTISCSGSSSNIGNNYVSWYQQLPGTAPKLLLYDSNKRPSGIPARFSGSKSGTSATLGITGLQTGDEADYYCGTWDSSLNTVVFGGGTKLTVL
notes: mAb
B5: 22G5 (antibody, V domains shown)
VH: EVQLLESGGGLVQPGGSLRLSCAASGFTFSSYAMNWVRQAPGMGLEWVSVISRSGGYTYYADSVKGRFTISRDNSKNTLYLQMNSLRAEDTAVYYCASRLAVAGSEAFDIWGQGTLVTVSS
VL: DIQMTQSPSSLSASVGDRVTITCRASQNISSYLNWYQQKQGKAPKLLIYAASSLQNGVPSRFSGRGSGTDFTLTISSLQPEDFATYYCQQSYRTPLFTFGPGTKVDFK
notes: Tested as hybridoma supernatant at normalized concentration
B6: 190F8 (antibody, V domains shown)
VH: QVQLVESGGGVVQPGRSLRLSCAASGFTFSTYGMHWVRQAPGKGLEWVAVIWYDGSNKNYADSVKGRFTISRDNSKNTLYLQMNSLRAEDTAVYYCARDQGVGYDGLDVWGQGTTVTVSS
VL: DIQMTQSPSSLSASVGDRVTITCRTSQGIGNYLAWFQQKPGKAPKSLLYKASSLQSGVPSKFSGSGSGTDFTLTISSLQPEDFATYYCQQYMTYPLTFGGGTKVEIK
notes: as for B5
B7: 197G3 (antibody, V domains shown)
VH: B6 VH with A23V, T31S, Y32H, Q100P, G101S, L107M
VL: DIQMTQSPSSLSASVGDRVTITCRASQGIGNHLAWFQQKPGKAPKSLIYAASSLQSGVPSKFSGSRSGTDFSLTISSLQPEDFATYYCQQYSNYPVTFGPGTKVDIK
notes: as for B5
B8: 194C1 (antibody, V domains shown)
VH: B6 VH with T31S, K58E, N59H, D99N, Q100R, D105Y
VL: B6 VL with T25A, G30S, L48I, K50A, Q89L, Q90H, M92L
notes: as for B5
B9: 191G1 (antibody, V domains shown)
VH: B6 VH with T31S, K58E, N59H, Q100R, D105Y
VL: B6 VL with T25A, G30S, L48I, K50A, Q90H, M92L
notes: as for B5
B10: 191G10 (antibody, V domains shown)
VH: B6 VH with T31S
VL: B6 VL with N31K, A51V
notes: as for B5
B11: 198G3 (antibody, V domains shown)
VH: B6 VH with R19K, S56T, Y80C
VL: B6 VL with T5A, N31K, S56G
notes: as for B5
B12: 54E9 (antibody, V domains shown)
VH: QVQLVQSGAEVKKPGASVKVSCKASGYTFNSYGISWVRLAPGQGLEWMGWISAYNGNTKNAQKLQGRVTMTTDTSTSTAYMELRSLRSDDTAVYYCARHDFWSGYYKGMDVWGQGTTVTVSS
VL: not shown
notes: as for B5
B13: 193E7 (antibody, V domains shown)
VH: B2 VH
VL: B2 VL
notes: as for B5
B14: 5E5 (antibody, V domains shown)
VH: QVQLVESGGGVVQPGRSLRLSCAASGFTFSNYVMHWVRQAPGKGLEWVAVIWYDGSNKYYADSVKGRFTISRDNSKNTLYLQMNSLRAEDTAVYYCTREVYSSGWYDYGMDVWGQGTTVTVSS
VL: B2 VL with S50A, R56S, K92Y, R93S, L96R, G100Q, I106V
notes: as for B5
B15: 6G7 (antibody, V domains shown)
VH: QVQLVESGGGVVQPGRSLRLSCAASGFTFSSYGMHWVRQTPGKGLEWVAIISYVGKNKYYADSVKGRFTISRDNSKNTLYLQMNSLRAEDTAVYYCARRGNSYGGYGMDVWGQGTTVTVSS
VL: DIQMTQSPSSRSASVGDRVTITCQASQDISNYLNWCQQKPGKALKLLIYDASTLETGVPSRFSGSGSGTDFTFTISSVQPEDIATYYCQQYDNVPITFGQGTRLEIK
notes: as for B5

The binders below were run against T1, human ASGR-1 mutant construct H203 (assay: FACS ratio: H203 normalized value / wt normalized value).
Method in brief: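 Transiently transfected CHO-S cells expressing wild-type or mutant hASGR-1 incubated with antibody at 5 ug/ml, 1 h at 4 °C; bound antibody detected by Alexa Fluor 647 anti-Fc plus 7-AAD, by flow cytometry. Binding normalized to expression using an unaffected antibody (65C12), then to wild type; hits defined as >3× IQR above third quartile.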

Normalization to wt ASGR1 Binding | Binder
1.18 | B1
1.18 | B2
0.978 | B3
0.707 | B4

Each binder was assayed against T2, Human ASGR-2 (assay: FACS on transfected HEK 293 cells; binding = signal at least 2x irrelevant IgG).
Method: (§1) Human ASGR-1-specific, ligand competing antibody samples were tested for binding to ASGR-1 from other species (cynomologus monkey ASGR-1, mouse ASGR-1, rat ASGR-1, dog ASGR-1, and pig ASGR-1) as well as to human ASGR-2 in FACS binding assays at normalized antibody concentrations. For cell-based assays, HEK 293 cells expressing the appropriate antigen of interest were mixed with antibody sample or controls, incubated for 1 hour at 4° C., and then washed twice. Cells with bound antibody were then incubated with Alexa Fluor® 647 IgG Fc fragment-specific detection antibody and 7-AAD viability stain for 15 minutes at 4° C., washed once and resuspended in FACS buffer. Samples were analyzed using a BD Accuri™ Flow Cytometer and an Intellicyt HyperCyt Autosampler. As a negative control, supernatants and controls were also screened against HEK 293 cells transfected with empty parental vector. […] For membrane-prep binding assays, ASGR-1 species specific membrane preps were used to coat LumAvidin® microspheres (beads) and tested for binding to selected hybridoma supernatants or controls. Briefly, ASGR-1 species specific membrane preps were incubated with streptavidin-coated LumAvidin® beads for 45 minutes in the dark at room temperature and washed twice. Beads were resuspeneded in FACS buffer containing Stabilguard®. Antigen-bound beads were then incubated with normalized antibody sample for 1 hour in the dark at room temperature, washed twice, incubated with Alexa Fluor® 488 IgG Fc fragment-specific detection antibody for 15 minutes in the dark at room temperature, washed once and finally resuspended in FACS buffer. Samples were analyzed using an Intellicyt iQue™ Screener Platform. FACS buffer supplemented with 1 mM Calcium Chloride was used in all steps. As a negative control, supernatants and controls were also screened against a non-ASGR-1 antigen membrane prep coated on the LumAvidin® beads.

binding result | Binder
no binding | B5
no binding | B6
no binding | B7
no binding | B8
no binding | B9
no binding | B10
no binding | B11
no binding | B12
no binding | B13
no binding | B14

Target: T3, Cyno ASGR-1
Test: FACS on transfected HEK 293 cells or membrane preps on beads; Y = signal at least 2x irrelevant IgG
Method: as §1

binding result | Binder
binds | B5
binds | B6
binds | B7
binds | B8
binds | B9
binds | B10
binds | B11
binds | B15
binds | B12
binds | B13
binds | B14

Target: T4, Pig ASGR-1
Test: as above
Method: as §1

binding result | Binder
binds | B6
binds | B7
binds | B8
binds | B9
binds | B10
binds | B11
